Each block holds one binder with its values, some of them ahead of it.
What was measured:
[1] = target: T1, aarF domain containing kinase 5 (human, UniProt Q3MIX3 1-580)
T1 construct: also called ADCK5

Dexd-box helicase 52 = target: T2, Dexd-box helicase 52 (human, UniProt Q9Y2R4 1-599)
T2 construct: also called DDX52
T2 sequence: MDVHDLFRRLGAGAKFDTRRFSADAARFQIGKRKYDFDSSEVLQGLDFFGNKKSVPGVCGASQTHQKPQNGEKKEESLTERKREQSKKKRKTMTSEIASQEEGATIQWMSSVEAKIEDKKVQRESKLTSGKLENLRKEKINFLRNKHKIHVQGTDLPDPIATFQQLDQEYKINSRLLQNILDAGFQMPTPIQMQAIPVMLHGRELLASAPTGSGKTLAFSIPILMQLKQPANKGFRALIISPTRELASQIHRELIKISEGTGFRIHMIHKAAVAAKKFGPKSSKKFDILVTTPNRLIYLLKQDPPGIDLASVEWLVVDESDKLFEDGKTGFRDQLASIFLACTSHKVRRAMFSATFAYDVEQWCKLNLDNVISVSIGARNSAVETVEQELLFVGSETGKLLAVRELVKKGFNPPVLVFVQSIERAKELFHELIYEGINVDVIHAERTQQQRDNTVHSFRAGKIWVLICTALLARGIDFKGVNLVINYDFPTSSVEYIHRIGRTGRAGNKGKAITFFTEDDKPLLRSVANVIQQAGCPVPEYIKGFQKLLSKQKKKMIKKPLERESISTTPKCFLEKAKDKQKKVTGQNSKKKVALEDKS

[2] = target: T3, G protein-coupled receptor 4 (human, UniProt P46093 1-362)
T3 construct: also called GPR4

[3] = target: T4, glyoxylate and hydroxypyruvate reductase (human, UniProt Q9UBQ7 1-328)
T4 construct: also called GRHPR
T4 sequence: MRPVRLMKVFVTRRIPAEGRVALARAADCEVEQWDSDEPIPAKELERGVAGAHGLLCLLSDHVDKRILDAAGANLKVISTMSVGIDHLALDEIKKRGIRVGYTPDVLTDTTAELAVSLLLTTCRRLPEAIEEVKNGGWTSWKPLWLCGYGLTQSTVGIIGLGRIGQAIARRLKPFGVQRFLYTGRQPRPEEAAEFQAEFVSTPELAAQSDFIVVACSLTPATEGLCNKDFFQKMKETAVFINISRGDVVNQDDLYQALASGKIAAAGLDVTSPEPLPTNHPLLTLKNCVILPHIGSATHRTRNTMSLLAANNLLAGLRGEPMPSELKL

[4] = target: BAF chromatin remodeling complex subunit BCL7C, transcript variant 2 (human, UniProt Q8WUZ0 1-217)
[5] = target: T5, acyl-CoA binding domain containing 6 (human, UniProt Q9BR61 1-282)
T5 construct: also called ACBD6
T5 sequence: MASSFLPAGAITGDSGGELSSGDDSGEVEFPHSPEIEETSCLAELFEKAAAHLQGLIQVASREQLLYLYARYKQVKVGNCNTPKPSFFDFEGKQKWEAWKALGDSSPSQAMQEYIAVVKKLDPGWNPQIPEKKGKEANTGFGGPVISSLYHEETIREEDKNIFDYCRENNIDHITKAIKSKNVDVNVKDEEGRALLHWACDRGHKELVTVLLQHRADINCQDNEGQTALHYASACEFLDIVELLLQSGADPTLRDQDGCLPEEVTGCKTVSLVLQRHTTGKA

G antigen 2A = target: T6, G antigen 2A (human, UniProt Q6NT46 1-116)
T6 construct: also called GAGE2A
T6 sequence: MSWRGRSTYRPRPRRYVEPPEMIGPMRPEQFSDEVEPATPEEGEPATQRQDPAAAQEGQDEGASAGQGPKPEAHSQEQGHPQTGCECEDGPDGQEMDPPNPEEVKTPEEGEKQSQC

phosducin like = target: T7, phosducin like (human, UniProt Q13371 2-301)
T7 construct: also called PDCL
T7 sequence: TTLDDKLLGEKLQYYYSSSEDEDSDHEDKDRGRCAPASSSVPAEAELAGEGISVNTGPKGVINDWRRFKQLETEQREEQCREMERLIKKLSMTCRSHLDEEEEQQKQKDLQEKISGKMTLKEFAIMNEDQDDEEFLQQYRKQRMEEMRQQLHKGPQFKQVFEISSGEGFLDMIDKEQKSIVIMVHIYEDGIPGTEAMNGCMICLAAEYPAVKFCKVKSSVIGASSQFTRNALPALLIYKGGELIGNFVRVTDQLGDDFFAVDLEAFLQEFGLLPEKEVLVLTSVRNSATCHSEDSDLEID

[6] = target: T8, proliferating cell nuclear antigen, transcript variant 1 (human, UniProt P12004 1-261)
T8 construct: also called PCNA

[7] = target: T9, phosphoglucomutase 2 like 1 (human, UniProt Q6PCE3 1-622 at identity 1.00), limits assumed)
T9 construct: also called PGM2L1
T9 sequence: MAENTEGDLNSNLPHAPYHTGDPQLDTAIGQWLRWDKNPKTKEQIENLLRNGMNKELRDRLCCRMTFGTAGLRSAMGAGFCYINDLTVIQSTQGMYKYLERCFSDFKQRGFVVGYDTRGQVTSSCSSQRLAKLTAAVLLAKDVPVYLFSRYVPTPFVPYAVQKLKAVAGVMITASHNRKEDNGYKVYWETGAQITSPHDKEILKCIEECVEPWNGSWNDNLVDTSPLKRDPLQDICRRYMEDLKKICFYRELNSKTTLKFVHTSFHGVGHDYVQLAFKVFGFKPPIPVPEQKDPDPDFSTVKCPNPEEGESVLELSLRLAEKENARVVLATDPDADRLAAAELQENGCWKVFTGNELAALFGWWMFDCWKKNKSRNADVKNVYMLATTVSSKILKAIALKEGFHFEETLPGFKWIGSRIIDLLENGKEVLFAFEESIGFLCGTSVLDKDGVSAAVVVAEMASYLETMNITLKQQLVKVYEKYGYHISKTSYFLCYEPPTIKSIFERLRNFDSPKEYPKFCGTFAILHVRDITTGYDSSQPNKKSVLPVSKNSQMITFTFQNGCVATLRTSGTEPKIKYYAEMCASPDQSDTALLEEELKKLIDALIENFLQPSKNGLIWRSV

programmed cell death 1 = target: T10, programmed cell death 1 (human, UniProt Q15116 25-288, limits assumed)
T10 construct: also called PDCD1
T10 sequence (Q15116 25-288 limits assumed): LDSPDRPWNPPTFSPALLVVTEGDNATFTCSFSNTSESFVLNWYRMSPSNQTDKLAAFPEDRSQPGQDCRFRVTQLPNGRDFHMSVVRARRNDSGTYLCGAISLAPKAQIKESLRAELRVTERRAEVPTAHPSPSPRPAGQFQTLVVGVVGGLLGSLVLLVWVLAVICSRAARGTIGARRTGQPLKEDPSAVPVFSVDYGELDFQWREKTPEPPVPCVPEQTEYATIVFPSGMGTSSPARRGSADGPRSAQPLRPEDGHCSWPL

T8 sequence (P12004 whole entry, change not shown): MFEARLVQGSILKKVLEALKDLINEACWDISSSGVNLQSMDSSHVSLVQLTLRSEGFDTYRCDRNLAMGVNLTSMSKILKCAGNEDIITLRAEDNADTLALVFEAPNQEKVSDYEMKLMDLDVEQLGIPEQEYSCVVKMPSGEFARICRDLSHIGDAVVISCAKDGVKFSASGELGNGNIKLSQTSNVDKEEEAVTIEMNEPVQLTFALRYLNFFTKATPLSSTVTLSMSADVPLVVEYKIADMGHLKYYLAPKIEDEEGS
T3 sequence (P46093 whole entry): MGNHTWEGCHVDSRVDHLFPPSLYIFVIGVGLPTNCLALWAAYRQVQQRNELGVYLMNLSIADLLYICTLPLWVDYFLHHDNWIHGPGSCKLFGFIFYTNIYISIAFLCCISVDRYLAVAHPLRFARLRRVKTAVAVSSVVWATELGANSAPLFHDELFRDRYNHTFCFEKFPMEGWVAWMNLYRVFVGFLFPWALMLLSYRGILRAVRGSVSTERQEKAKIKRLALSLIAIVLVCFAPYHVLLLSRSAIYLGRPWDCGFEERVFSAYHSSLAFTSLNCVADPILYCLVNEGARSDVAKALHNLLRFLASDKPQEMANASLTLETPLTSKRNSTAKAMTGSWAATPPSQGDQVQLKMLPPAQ
T1 sequence (Q3MIX3 other isoform, or with tags, fused parts or gaps limits assumed): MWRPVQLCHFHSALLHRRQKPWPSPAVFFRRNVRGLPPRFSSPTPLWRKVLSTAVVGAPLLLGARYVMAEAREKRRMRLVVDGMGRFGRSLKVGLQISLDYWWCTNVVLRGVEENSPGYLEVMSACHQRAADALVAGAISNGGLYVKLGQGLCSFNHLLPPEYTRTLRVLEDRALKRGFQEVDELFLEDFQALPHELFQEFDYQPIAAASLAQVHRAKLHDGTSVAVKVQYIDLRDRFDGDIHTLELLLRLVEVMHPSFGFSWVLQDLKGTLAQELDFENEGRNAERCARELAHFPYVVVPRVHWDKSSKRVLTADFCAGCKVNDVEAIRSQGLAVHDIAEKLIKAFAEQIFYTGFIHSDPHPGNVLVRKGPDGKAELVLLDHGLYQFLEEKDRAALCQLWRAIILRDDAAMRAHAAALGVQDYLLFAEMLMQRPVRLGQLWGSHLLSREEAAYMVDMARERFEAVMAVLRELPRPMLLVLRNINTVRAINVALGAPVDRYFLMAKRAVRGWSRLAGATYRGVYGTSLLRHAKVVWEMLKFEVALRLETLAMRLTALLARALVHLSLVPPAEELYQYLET

B1: TTES1009 (antibody, V domains shown)
VH: EVQLVESGGGLVQPGGSLRLSCAASGFTFSSYEMNWVRQAPGKGLEWVSYISSSGSTIYYADSVKGRFTISRDNAKNSLYLQMNSLRAEDTAVYYCARRGFYYYYGMDVWGQGTTVTVSS
VL: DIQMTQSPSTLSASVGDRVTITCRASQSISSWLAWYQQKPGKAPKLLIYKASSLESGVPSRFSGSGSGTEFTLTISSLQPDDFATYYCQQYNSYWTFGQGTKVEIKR
binding result [1]: binds

B3: TTES1004 (antibody, V domains shown)
VH: EVQLVESGGGLVQPGGSLRLSCVASGFTFSSYSMNWVRQAPGKGLKWVSYISSSRSTIYNADSVKGRFTISRDNAKKSLYLQMNSLRAEDTAVYYCARVSVAAPTCLDYWGQGTLVTVSS
VL: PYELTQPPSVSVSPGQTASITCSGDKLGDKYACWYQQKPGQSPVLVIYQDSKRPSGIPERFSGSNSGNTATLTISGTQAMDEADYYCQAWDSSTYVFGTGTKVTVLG
binding result [3]: binds

B7: TTES1007 (antibody, V domains shown)
VH: QITLKESGPTLVKPTQTLTLTCTFSGFSLTTTGVGVGWIRQPPGKALEWLALIYWDDDKRYSPSLKSRLIITKDTSKNQVVLTMTNMDPVDTATYYCAHRFGRGVSYYYYGMDVWGQGTTVTVSS
VL: not shown
binding result (phosducin like): binds

B9: TTES1002 (antibody, V domains shown)
VH: QVQLQESGPGLVKPSETLSLICTVSGASVNSGTHFWSWIRQPPGKGLEWIGYVYYSGNTNYNPSLKSRVAISVDTSKNQFSLKLTSVTSADTAVYYCARDFDDGYDIRYWGQGTRVSVSS
VL: QSALTQPASVSGSPGQSITISCTGSSNDIGRYKYVSWFQHHPGRAPKLIIYEVNNRPSGLSHRFSGSKSGNTASLTISGLQAEDEADYYCCSYTSSLTYVFGTGTAVTVL
binding result [7]: binds

B10: TTES1003 (antibody, V domains shown)
VH: VVQLVESGGGLVQPGGSLRLSCSASGFTFSSYAMHWVRQAPGKGLEYVSAISSNGGSTYYADSVKGRFTISRDNSKNTLYLQMSSLRAEDTAVYYCVKSPVAANDAFDIWGQGTMVTVSS
VL: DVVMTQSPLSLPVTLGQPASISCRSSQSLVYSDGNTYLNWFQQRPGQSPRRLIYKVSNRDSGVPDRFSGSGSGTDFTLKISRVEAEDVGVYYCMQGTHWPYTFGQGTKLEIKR
binding result (programmed cell death 1): binds

Next, values leading:

binding result (Dexd-box helicase 52): binds
binding result [2]: binds
B2: TTES1008 (antibody, V domains shown)
VH: QVQLVESGGGVVQPGRSLRLSCAASGFIFSSYGMHWVRQAPGKGLEWVAVISYDGSNKYYADSVKGRFTISRDKSKNTLHLQMNSLRAEDTAVYYCAKDSGSNDDMDVWGKGTTVTVSS
VL: QSVLTQPPSVSAAPGQKVTISCSGSSSNIGNNYVSWYQQLPGTAPKLLIYDNNKRPSGIPDRFSGSKSGTSATLGITGLQTGDEADYYCGTWDSSLSAGVFGTGTKVTVLG

binding result [4]: binds
B4: TTHY1003 (antibody, V domains shown)
VH: QVQLVQSGAEMKKPGTSVKVSCRTSGYIFTGSFMHWVRQAPAQGLEWMGWINPKTGATYYTEKFKGRVTLTRDTSINTAYMEMTSLRSDDTAVYYCARGFCDLPACYPVPQYNWFDPWGQGTLVTVSS
VL: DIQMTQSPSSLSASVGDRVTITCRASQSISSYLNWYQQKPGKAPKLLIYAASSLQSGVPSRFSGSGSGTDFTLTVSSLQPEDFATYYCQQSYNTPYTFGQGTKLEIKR

binding result [5]: binds
B5: TTES1006 (antibody, V domains shown)
VH: EVQLVESGGGLVQPGGSLRLSCAASGFTFSKFWMHWVRQAPGKGLVWLSRINTDGTVTTYADSVKGRFTISRDNAKSTLYLQMNSLRVEDTAVYYCAGGGSQVDFWGQGTLVTVSS
VL: PYELTQPPSVSVSPGQTASIACSGDNLGNKYAWWYRQKPGQSPVLVMYKDNKRPSGIPERFSGSNSGNTATLTISGTQAMDEADYYCQTWDSSTVIFGGGTKLTVQ

binding result (G antigen 2A): binds
B6: TTES1012 (antibody, V domains shown)
VH: EVQLVESGGGLVQPGGSLRLSCAASGFTFSSYWMTWVRQAPGKGLEWVANIKQDGSEKYYVDSVKGRFTISRDNSKNSLYLQMNSLRAEDTAVYYCARAGYDLFGWFDPWGQGTLVTVSS
VL: SYELTQPPSVSVSPGQTARITCSGDALPKQYAYWYQQKPGQAPVLVIYKDSERPSGIPERFSGSSSGTTVTLTISGVQAEDEADYYCQSADSSGTYVFGTGTKVTVLG

binding result [6]: binds
B8: TTHY1002 (antibody, V domains shown)
VH: EVQVVESGGGLGQPGGSLRLSCAASGFTFSSYSMNWVRQAPGKGLEWVSYISSSSSTKYYADSVKGRFTISRDNAKKSLYLQMNSLRDEDTAVYYCASPVRPWGQGTLVTVSS
VL: EIVMTQSPATLSVSPGERATLSCRASQSVSSNLAWYQQKPGQAPRLLIYGASTRATGIPARFSGSGSGTEFTLTISSLQSEDFAIYYCQQYNSWPAFGGGTKVEIK
